Experimental data: patent US8987192B2, “Potent and selective mediators of cholesterol efflux” (The Regents of the University of California, priority 2006, dated 2015)
Where no end group is shown, it is not given here. [ ]: non-standard residue; d: D form.

Columns and labels:
[1] = scaled values = (raw log(P) + 2.061)/4.484; cited from earlier work
ABCA1 = ABCA1 (Mus musculus, UniProt P41233); experiment: Cholesterol efflux from [3H]cholesterol-labeled ABCA1-expressing J774 mouse macrophages; type: cell-based; set-up: to upregulate cellular ABCA1 protein; endogenous in cells; host or cells: J774 mouse macrophages; settings: for efficiency of ABCA1 cholesterol efflux (concentration dependence): concentration dependence curves; for ABCA1-dependent cholesterol efflux: macrophages with vs without cAMP; for cholesterol efflux from macrophages not induced for ABCA1 (non-specific): no cAMP; for ABCA1-dependent cholesterol efflux at 30 μg/ml: 30 μg/ml peptide
ABCA1, sequence (P41233 whole entry): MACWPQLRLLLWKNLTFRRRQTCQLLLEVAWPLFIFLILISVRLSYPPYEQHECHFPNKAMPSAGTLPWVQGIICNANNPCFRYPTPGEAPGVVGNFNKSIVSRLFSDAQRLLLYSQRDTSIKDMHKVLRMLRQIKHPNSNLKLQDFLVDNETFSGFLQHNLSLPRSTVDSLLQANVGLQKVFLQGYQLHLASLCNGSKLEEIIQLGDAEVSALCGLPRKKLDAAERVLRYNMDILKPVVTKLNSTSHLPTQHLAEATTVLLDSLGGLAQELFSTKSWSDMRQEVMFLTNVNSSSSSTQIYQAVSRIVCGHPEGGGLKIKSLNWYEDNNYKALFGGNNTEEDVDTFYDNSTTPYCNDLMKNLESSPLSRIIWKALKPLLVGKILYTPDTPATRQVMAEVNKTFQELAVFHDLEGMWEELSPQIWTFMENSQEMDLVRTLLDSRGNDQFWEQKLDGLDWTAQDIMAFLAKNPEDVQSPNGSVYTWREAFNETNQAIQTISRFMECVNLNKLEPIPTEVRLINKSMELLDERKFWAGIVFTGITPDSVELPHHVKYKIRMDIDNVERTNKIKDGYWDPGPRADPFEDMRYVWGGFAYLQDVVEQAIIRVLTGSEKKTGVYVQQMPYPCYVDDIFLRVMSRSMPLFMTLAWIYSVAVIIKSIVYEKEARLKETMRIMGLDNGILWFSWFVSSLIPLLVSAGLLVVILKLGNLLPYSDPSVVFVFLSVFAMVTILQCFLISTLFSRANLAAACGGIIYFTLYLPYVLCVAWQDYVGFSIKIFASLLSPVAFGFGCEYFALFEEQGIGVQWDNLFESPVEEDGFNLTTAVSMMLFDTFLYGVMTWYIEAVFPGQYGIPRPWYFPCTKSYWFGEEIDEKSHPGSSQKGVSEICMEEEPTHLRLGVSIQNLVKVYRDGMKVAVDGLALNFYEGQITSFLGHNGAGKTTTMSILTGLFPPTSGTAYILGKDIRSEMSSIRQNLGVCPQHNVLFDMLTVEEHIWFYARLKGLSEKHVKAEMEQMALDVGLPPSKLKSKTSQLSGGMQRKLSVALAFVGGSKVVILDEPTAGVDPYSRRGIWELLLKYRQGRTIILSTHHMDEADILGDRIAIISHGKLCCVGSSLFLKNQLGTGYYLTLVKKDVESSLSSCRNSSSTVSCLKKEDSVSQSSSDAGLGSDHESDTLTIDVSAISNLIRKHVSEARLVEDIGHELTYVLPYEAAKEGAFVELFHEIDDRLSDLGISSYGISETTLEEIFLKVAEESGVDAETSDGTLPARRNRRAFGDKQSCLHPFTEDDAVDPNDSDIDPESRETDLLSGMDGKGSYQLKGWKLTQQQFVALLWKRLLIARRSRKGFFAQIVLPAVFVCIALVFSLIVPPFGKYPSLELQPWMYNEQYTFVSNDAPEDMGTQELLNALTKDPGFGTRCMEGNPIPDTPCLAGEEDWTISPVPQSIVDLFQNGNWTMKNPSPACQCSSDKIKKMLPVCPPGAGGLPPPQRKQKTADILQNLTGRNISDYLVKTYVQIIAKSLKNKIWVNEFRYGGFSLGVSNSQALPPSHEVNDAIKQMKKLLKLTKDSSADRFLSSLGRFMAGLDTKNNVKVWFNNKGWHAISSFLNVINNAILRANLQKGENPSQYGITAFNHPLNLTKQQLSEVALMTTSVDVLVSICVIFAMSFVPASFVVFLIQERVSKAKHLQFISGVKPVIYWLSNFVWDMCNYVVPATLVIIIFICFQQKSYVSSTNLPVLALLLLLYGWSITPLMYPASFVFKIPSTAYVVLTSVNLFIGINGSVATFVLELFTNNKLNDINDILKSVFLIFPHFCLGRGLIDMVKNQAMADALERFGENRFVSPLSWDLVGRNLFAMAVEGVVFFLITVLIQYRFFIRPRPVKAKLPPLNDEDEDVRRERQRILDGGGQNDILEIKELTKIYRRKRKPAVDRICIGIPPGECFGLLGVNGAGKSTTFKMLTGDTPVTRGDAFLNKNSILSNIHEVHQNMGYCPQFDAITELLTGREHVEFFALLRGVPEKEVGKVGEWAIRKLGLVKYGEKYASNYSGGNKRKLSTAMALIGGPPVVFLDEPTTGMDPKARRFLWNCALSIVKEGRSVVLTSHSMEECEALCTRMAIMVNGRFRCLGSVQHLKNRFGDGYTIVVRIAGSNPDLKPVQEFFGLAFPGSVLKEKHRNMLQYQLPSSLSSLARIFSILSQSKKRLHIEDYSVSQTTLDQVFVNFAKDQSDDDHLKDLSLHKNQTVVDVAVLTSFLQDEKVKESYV
Description: In some embodiments, a polypeptide known to mediate cholesterol efflux (e.g., helix 9/10 of Apo A-I) is used to screen for additional mediators of cholesterol efflux in a cell based assay. For example, cell lines in which cholesterol efflux can be enhanced using a cAMP analog that up-regulates ABCA1 protein expression (e.g., J774 macrophages) can conveniently be used to assess the ability of a polypeptide of the present invention to mediate cholesterol efflux. The cells are incubated with labeled cholesterol (e.g., [^3H]cholesterol) under conditions appropriate for cholesterol uptake by the cells. Thus, cAMP or cAMP analogs (e.g., CPT-cAMP) are incubated with the cells for a suitable time before the initiation of cellular cholesterol efflux, i.e., prior to contacting the cells with a test polypeptide. Measurement of labeled cholesterol appearing in the medium is used to determine the cholesterol efflux mediating activity of the test polypeptide.
J774 mouse macrophages labeled with [^3H]cholesterol were treated (20 h) with 22-hydroxycholesterol (10 μM)/cis-retinoic acid (10 μM) to upregulate cellular ABCA1 protein.
Mouse macrophages were labeled with [^3H]cholesterol and treated with a cAMP analog to induce ABCA1 expression. […] Km values were calculated using the Michaelis-Menton equation and GraphPad Prism4 software.
Inverted sequence peptides synthesized with all L-amino acids and all D-amino acids were tested for cholesterol efflux activity using ABCA1 expressing J774 macrophages.
Two peptide analogs were engineered; the first replacing glutamic acid residues (E) at position 8 and 15 with aspartic acid residues (D), i.e., E8, 15>D polypeptides, and the second, replacing E1, 7, 8, 15, 18, 19 with D, i.e., all D (Asp) polypeptide. Cholesterol efflux activity was determined using J774 macrophages treated with and without a cAMP analog to modulate ABCA1 expression.
The impact of the A12>L substitution was also tested for activity, which also expanded non-polar surface area.
1-palmitoyl-2-oleoyl-phosphatidylcholine (POPC) was used to evaluate the cholesterol efflux properties of a formulated polypeptide of the present invention. […] To test cholesterol efflux activity, J774 mouse macrophages were labeled with [^3H]cholesterol and treated with and without cAMP to modulate ABCA1 expression.

[2] = biological target: ABCA1 of J774 mouse macrophages (mouse, UniProt P41233 1-2261); experiment: cell-based or functional assay
ABCA1 of J774 mouse macrophages, sequence (P41233 whole entry): as above

## C[C@H](N)C(=O)O [Alanine]
[1]
  Hydrophobicity: 0.616

## N=C(N)NCCC[C@H](N)C(=O)O [Arginine]
[1]
  Hydrophobicity: 0.000

## NC(=O)C[C@H](N)C(=O)O [Asparagine]
[1]
  Hydrophobicity: 0.236

## N[C@@H](CCC(=O)O)C(=O)O [Glutamate]
[1]
  Hydrophobicity: 0.043

## NCC(=O)O [Glycine]
[1]
  Hydrophobicity: 0.501

## N[C@@H](Cc1c[nH]cn1)C(=O)O [Histidine]
[1]
  Hydrophobicity: 0.165

## CC[C@H](C)[C@H](N)C(=O)O [Isoleucine]
[1]
  Hydrophobicity: 0.943

## NCCCC[C@H](N)C(=O)O [Lysine]
[1]
  Hydrophobicity: 0.283

## CSCC[C@H](N)C(=O)O [Methionine]
[1]
  Hydrophobicity: 0.738

## N[C@@H](Cc1ccccc1)C(=O)O [Phenylalanine]
[1]
  Hydrophobicity: 1.00

## O=C(O)[C@@H]1CCCN1 [Proline]
[1]
  Hydrophobicity: 0.711

## C[C@@H](O)[C@H](N)C(=O)O [Threonine]
[1]
  Hydrophobicity: 0.450

## N[C@@H](Cc1c[nH]c2ccccc12)C(=O)O [Tryptophan]
[1]
  Hydrophobicity: 0.878

## N[C@@H](Cc1ccc(O)cc1)C(=O)O [Tyrosine]
[1]
  Hydrophobicity: 0.880

## CC(C)[C@H](N)C(=O)O [Valine]
[1]
  Hydrophobicity: 0.825

## R3, 14, 23→Q3, 14, 23: SEQ ID NO:5 with arginines 3, 14, 23 changed to glutamine (EVQSKLEEWFAAFQEFFEEFLAQLKS; S1 amphipathic alpha-helix polypeptide core sequence selectively binds HDL, high-affinity ligand for ATP- binding cassette transporter A1 (ABCA1), ABCA1-lipid cholesterol efflux, ABCA1-stablization, anti-oxidant and anti-inflammatory activity)
ABCA1
  efficiency of ABCA1 cholesterol efflux (concentration dependence): reduced efflux efficiency
  ABCA1-dependent cholesterol efflux: greatly reduced efflux capacity

## R3>F: SEQ ID NO:4 polypeptides with arginine at position 3 replaced by phenylalanine (EVFSKLEEWFAAFREFAEEFLARLKS; ATI-5261 amphipathic alpha-helix polypeptide core sequence selectively binds HDL, high-affinity ligand for ATP-binding cassette transporter A1 (ABCA1), ABCA1-lipid cholesterol efflux, ABCA1-stablization, anti-oxidant and anti- inflammatory activity)
ABCA1
  ABCA1-dependent cholesterol efflux: relatively high-levels of cholesterol efflux
  cholesterol efflux from macrophages not induced for ABCA1 (non-specific): low-levels of cholesterol efflux

## R3>L: SEQ ID NO:4 polypeptides with arginine at position 3 replaced by leucine (EVLSKLEEWFAAFREFAEEFLARLKS; ATI-5261 amphipathic alpha-helix polypeptide core sequence selectively binds HDL, high-affinity ligand for ATP-binding cassette transporter A1 (ABCA1), ABCA1-lipid cholesterol efflux, ABCA1-stablization, anti-oxidant and anti- inflammatory activity)
ABCA1
  ABCA1-dependent cholesterol efflux: relatively high-levels of cholesterol efflux
  cholesterol efflux from macrophages not induced for ABCA1 (non-specific): low-levels of cholesterol efflux

## R3→Q: SEQ ID NO:5 with arginine 3 replaced by glutamine (EVQSKLEEWFAAFREFFEEFLARLKS; S1 amphipathic alpha-helix polypeptide core sequence selectively binds HDL, high-affinity ligand for ATP- binding cassette transporter A1 (ABCA1), ABCA1-lipid cholesterol efflux, ABCA1-stablization, anti-oxidant and anti-inflammatory activity)
ABCA1
  ABCA1-dependent cholesterol efflux at 30 μg/ml: mediated cholesterol efflux in an ABCA1 dependent manner
  efficiency of ABCA1 cholesterol efflux (concentration dependence): high efficiency

## R14→Q: SEQ ID NO:5 with arginine 14 replaced by glutamine (EVRSKLEEWFAAFQEFFEEFLARLKS; S1 amphipathic alpha-helix polypeptide core sequence selectively binds HDL, high-affinity ligand for ATP- binding cassette transporter A1 (ABCA1), ABCA1-lipid cholesterol efflux, ABCA1-stablization, anti-oxidant and anti-inflammatory activity)
ABCA1
  ABCA1-dependent cholesterol efflux at 30 μg/ml: mediated cholesterol efflux in an ABCA1 dependent manner
  efficiency of ABCA1 cholesterol efflux (concentration dependence): high efficiency

## R23→Q: SEQ ID NO:5 with arginine 23 replaced by glutamine (EVRSKLEEWFAAFREFFEEFLAQLKS; S1 amphipathic alpha-helix polypeptide core sequence selectively binds HDL, high-affinity ligand for ATP- binding cassette transporter A1 (ABCA1), ABCA1-lipid cholesterol efflux, ABCA1-stablization, anti-oxidant and anti-inflammatory activity)
ABCA1
  ABCA1-dependent cholesterol efflux at 30 μg/ml: mediated cholesterol efflux in an ABCA1 dependent manner
  efficiency of ABCA1 cholesterol efflux (concentration dependence): high efficiency

## S4, 26>A: SEQ ID NO:4 with serine to alanine substitutions at positions 4 and 26 (EVRAKLEEWFAAFREFAEEFLARLKA; ATI-5261 amphipathic alpha-helix polypeptide core sequence selectively binds HDL, high-affinity ligand for ATP-binding cassette transporter A1 (ABCA1), ABCA1-lipid cholesterol efflux, ABCA1-stablization, anti-oxidant and anti- inflammatory activity)
ABCA1
  ABCA1-dependent cholesterol efflux: retained ABCA1-dependent cholesterol efflux activity

## SKLRALFEEAFERFAAFWEELKSRVE ([dS][dK][dL][dR][dA][dL][dF][dE][dE][dA][dF][dE][dR][dF][dA][dA][dF][dW][dE][dE][dL][dK][dS][dR][dV][dE])
ABCA1
  ABCA1-dependent cholesterol efflux: stimulate ABCA1 cholesterol efflux in a ABCA1-dependent manner

## SKLRALFEEAFERFAAFWEELKSRVE (inverted peptide, ATI-5261 in reverse order)
ABCA1
  ABCA1-dependent cholesterol efflux at 30 μg/ml: stimulated cholesterol efflux in an ABCA1-dependent manner

## [dE][dV][dR][dS][dK][dL][dE][dE][dW][dF][dA][dA][dF][dR][dE][dF][dA][dE][dE][dF][dL][dA][dR][dL][dK][dS] [polypeptide of SEQ ID NO:4 composed of all D-amino acids]
[2]
  cholesterol efflux: concentration giving maximal efflux: 3 µg/mL

## SKLRALFEEAFERFAAFWEELKSRVE [inverted sequence peptide of SEQ ID NO:20, all L-amino acids]
[2]
  cholesterol efflux: concentration giving maximal efflux: 3 µg/mL

## EVKSKLEEWFAAFKEFFEEFLAKLKS [R3, 14, 23→K3, 14, 23 analog of the polypeptide of SEQ ID NO:5]
[2]
  cholesterol efflux: concentration giving maximal efflux: 3 µg/mL

## EVRAKLEEWFAAFREFAEEFLARL [24-mer core peptide of SEQ ID NO:4 with the S4>A substitution]
[2]
  cholesterol efflux: concentration giving maximal efflux: 3 µg/mL

## [dS][dK][dL][dR][dA][dL][dF][dE][dE][dA][dF][dE][dR][dF][dA][dA][dF][dW][dE][dE][dL][dK][dS][dR][dV][dE] [inverted sequence peptide of SEQ ID NO:20, all D-amino acids]
[2]
  cholesterol efflux: concentration giving maximal efflux: 3 µg/mL

## EVRSKLEEWFAAFREFAEEFLARLKY [S26>Y analog of the polypeptide of SEQ ID NO:4]
[2]
  cholesterol efflux: concentration giving maximal efflux: 3 µg/mL

## DVRSKLDDWFAAFRDFFDDFLARLKS [E1, 7, 8, 15, 18, 19>D analog of the polypeptide of SEQ ID NO:5]
[2]
  cholesterol efflux: concentration giving maximal efflux: 3 µg/mL

## EVRSKLEDWFAAFRDFFEEFLARLKS [E8, 15>D analog of the polypeptide of SEQ ID NO:5]
[2]
  cholesterol efflux: concentration giving maximal efflux: 3 µg/mL

## EVRAKLEEWFAAFREFAEEFLARLKA [S4, 26>A analog of the polypeptide of SEQ ID NO:4]
[2]
  cholesterol efflux: concentration giving maximal efflux: 3 µg/mL

## EVRSKLEEWFAAFREFFEEFLARL [24-mer polypeptide of SEQ ID NO:5 lacking Lys25-Ser26]
[2]
  cholesterol efflux: concentration giving maximal efflux: 3 µg/mL
